Blank lines part the entries; values can stand above or below the substance they belong to.
How the values were obtained:
[1] = target: DJ6 peptide (GDF8 residues 342-361) (human); test: ELISA, peptide coated 500 ng/well; MAB 788 10 mg/ml diluted 1:40
[2] = target: DJ1 peptide (GDF8 residues 267-286) (human); test: as above
[3] = target: DJ4 peptide (GDF8 residues 312-331) (human); test: as above
[4] = target: DJ3 peptide (GDF8 residues 297-316) (human); test: as above
[5] = target: DJ2 peptide (GDF8 residues 282-301) (human); test: as above
Sequence of DJ2 peptide (GDF8 residues 282-301) (human) (peptide, as listed by the source): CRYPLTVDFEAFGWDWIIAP

[6] = target: DJ7 peptide (GDF8 residues 357-375) (human); test: as above
Sequence of DJ7 peptide (GDF8 residues 357-375) (human) (peptide, as listed by the source): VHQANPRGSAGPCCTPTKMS

[7] = target: DJ5 peptide (GDF8 residues 327-346) (human); test: as above
[8] = target: purified GDF8 prohormone with C-terminal FLAG epitope (GDF8 prohormone-FLAG fusion protein) (human) (UniProt O14793); test: ELISA, purified GDF8 prohormone coated 250 ng/well; MAB 788 10 mg/ml diluted 1:20
[9] = target: DJ6 peptide (GDF8 residues 342-361) (human); test: ELISA, peptide coated 500 ng/well; MAB 788 10 mg/ml diluted 1:20
[10] = target: DJ1 peptide (GDF8 residues 267-286) (human); test: as above
[11] = target: DJ4 peptide (GDF8 residues 312-331) (human); test: as above
[12] = target: DJ3 peptide (GDF8 residues 297-316) (human); test: as above
[13] = target: DJ2 peptide (GDF8 residues 282-301) (human); test: as above
[14] = target: DJ7 peptide (GDF8 residues 357-375) (human); test: as above
[15] = target: DJ5 peptide (GDF8 residues 327-346) (human); test: as above
[16] = target: DJ6 peptide (GDF8 residues 342-361) (human); test: ELISA, peptide coated 500 ng/well; MAB 788 10 mg/ml diluted 1:80
[17] = target: DJ1 peptide (GDF8 residues 267-286) (human); test: as above
[18] = target: DJ4 peptide (GDF8 residues 312-331) (human); test: as above
[19] = target: DJ3 peptide (GDF8 residues 297-316) (human); test: as above
[20] = target: DJ2 peptide (GDF8 residues 282-301) (human); test: as above
[21] = target: DJ7 peptide (GDF8 residues 357-375) (human); test: as above
[22] = target: DJ5 peptide (GDF8 residues 327-346) (human); test: as above
[23] = target: purified GDF8 prohormone with C-terminal FLAG epitope (GDF8 prohormone-FLAG fusion protein) (human) (UniProt O14793); test: ELISA, purified GDF8 prohormone coated 250 ng/well; MAB 788 10 mg/ml diluted 1:80
[24] = target: GDF8 protein (R&D Systems Inc., Minneapolis, Minn.) (UniProt O14793); test: cell-based or functional assay
[25] = target: purified GDF8 prohormone with C-terminal FLAG epitope (GDF8 prohormone-FLAG fusion protein) (human) (UniProt O14793); test: ELISA, purified GDF8 prohormone coated 250 ng/well; MAB 788 10 mg/ml diluted 1:40

Sequence of DJ1 peptide (GDF8 residues 267-286) (human) (peptide, as listed by the source): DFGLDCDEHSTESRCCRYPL
Sequence of DJ6 peptide (GDF8 residues 342-361) (human) (peptide, as listed by the source): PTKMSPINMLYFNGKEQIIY
Sequence of DJ3 peptide (GDF8 residues 297-316) (human) (peptide, as listed by the source): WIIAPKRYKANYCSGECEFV
Sequence of DJ4 peptide (GDF8 residues 312-331) (human) (peptide, as listed by the source): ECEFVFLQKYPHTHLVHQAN

- OD 405/minute × 1000 (OD 405/minute × 1000) [1]: 0
- OD 405/minute × 1000 (OD 405/minute × 1000) [2]: 0
- OD 405/minute × 1000 (OD 405/minute × 1000) [3]: 0
- OD 405/minute × 1000 (OD 405/minute × 1000) [4]: 0
- OD 405/minute × 1000 (OD 405/minute × 1000) [5]: 0
- OD 405/minute × 1000 (OD 405/minute × 1000) [6]: 0
- OD 405/minute × 1000 (OD 405/minute × 1000) [7]: 118
- OD 405/minute × 1000 (OD 405/minute × 1000) [8]: 132
- OD 405/minute × 1000 (OD 405/minute × 1000) [9]: 0
- OD 405/minute × 1000 (OD 405/minute × 1000) [10]: 4
- OD 405/minute × 1000 (OD 405/minute × 1000) [11]: 0
- OD 405/minute × 1000 (OD 405/minute × 1000) [12]: 0
- OD 405/minute × 1000 (OD 405/minute × 1000) [13]: 0
- OD 405/minute × 1000 (OD 405/minute × 1000) [14]: 0
- OD 405/minute × 1000 (OD 405/minute × 1000) [15]: 133
- OD 405/minute × 1000 (OD 405/minute × 1000) [16]: 0
- OD 405/minute × 1000 (OD 405/minute × 1000) [17]: 0
- OD 405/minute × 1000 (OD 405/minute × 1000) [18]: 0
- OD 405/minute × 1000 (OD 405/minute × 1000) [19]: 0
- OD 405/minute × 1000 (OD 405/minute × 1000) [20]: 0
- OD 405/minute × 1000 (OD 405/minute × 1000) [21]: 0
- OD 405/minute × 1000 (OD 405/minute × 1000) [22]: 102
- OD 405/minute × 1000 (OD 405/minute × 1000) [23]: 132
- % Inhibition of GDF8 Activity (0.1 µg IgG), A204 CAGA-luciferase transcriptional activation assay [24]: 0%
- % Inhibition of GDF8 Activity (1.8 µg IgG), A204 CAGA-luciferase transcriptional activation assay [24]: 0%
- % Inhibition of GDF8 Activity (3.1 µg IgG), A204 CAGA-luciferase transcriptional activation assay [24]: 7%
- % Inhibition of GDF8 Activity (6.3 µg IgG), A204 CAGA-luciferase transcriptional activation assay [24]: 17%
- % Inhibition of GDF8 Activity (12.5 µg IgG), A204 CAGA-luciferase transcriptional activation assay [24]: 47%
- OD 405/minute × 1000 (OD 405/minute × 1000) [25]: 127
Substance: Rat monoclonal antibody 788 (R&D Systems Inc., Cat. No. MAB788)

- % Inhibition of GDF8 Activity (250 µg IgG), A204 CAGA-luciferase transcriptional activation assay [24]: 0%
Substance: normal goat IgG (negative control purified from non-immunized goat sera) (antibody)

— patent US20090311282A1
